As a reminder, the Kd is a measure of binding affinity in units of concentration.

The results in this text go back to PMC10287905, “Proper RPA acetylation promotes accurate DNA replication and repair” (Nucleic Acids Research, 2023).

Common to all, as to experiment: MST; RED-tris-NTA labelled 6xHis-Rtt105 at constant 100 nM, serial dilutions of RPA complex from 200 to 0.0058 nM; 1x PBS with 0.05% Tween 20; 50 min at room temperature; Monolith NT.115
What all share (details): both partners purified

One assay addresses T1, WT RPA complex (yeast, UniProt P22336 1-621; P26754 1-273; P26755 1-122).
T1 construct: Rfa1, largest subunit of yeast RPA; Rfa2, subunit of yeast RPA; Rfa3, subunit of yeast RPA; the MST methods say only 'RPA complex'; source: purified from yeast cells; copies: + +

For another assay, the target named is T2, 4KQ RPA complex (yeast, UniProt P22336 1-621; P26754 1-273; P26755 1-122, K259Q | K427Q | K463Q | K494Q).
T2 construct: Rfa1, largest subunit of yeast RPA, four lysines mutated to glutamine; Rfa2, subunit of yeast RPA; Rfa3, subunit of yeast RPA; also called 4KQ mutant RPA; source: purified from yeast cells; copies: + +
T2 sequence (P22336 whole entry K259Q/K427Q/K463Q/K494Q, chain 1 of 3): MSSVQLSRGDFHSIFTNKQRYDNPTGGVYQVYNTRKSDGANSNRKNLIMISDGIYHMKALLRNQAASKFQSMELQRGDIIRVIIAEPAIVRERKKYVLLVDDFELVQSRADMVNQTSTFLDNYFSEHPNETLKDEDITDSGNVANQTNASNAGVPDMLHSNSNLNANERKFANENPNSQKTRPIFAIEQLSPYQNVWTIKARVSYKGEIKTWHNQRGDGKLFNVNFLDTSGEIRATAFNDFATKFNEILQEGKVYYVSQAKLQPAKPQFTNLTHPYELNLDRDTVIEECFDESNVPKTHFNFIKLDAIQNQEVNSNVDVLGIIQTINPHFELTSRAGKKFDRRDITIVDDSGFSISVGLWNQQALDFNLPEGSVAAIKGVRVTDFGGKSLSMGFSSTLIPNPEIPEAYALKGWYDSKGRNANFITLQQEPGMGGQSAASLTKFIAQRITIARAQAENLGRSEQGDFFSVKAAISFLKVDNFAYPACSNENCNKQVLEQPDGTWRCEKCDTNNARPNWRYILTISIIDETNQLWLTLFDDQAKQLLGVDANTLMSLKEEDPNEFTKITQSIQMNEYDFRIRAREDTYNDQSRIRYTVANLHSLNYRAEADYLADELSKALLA
T2 sequence (P26754 whole entry, chain 2 of 3): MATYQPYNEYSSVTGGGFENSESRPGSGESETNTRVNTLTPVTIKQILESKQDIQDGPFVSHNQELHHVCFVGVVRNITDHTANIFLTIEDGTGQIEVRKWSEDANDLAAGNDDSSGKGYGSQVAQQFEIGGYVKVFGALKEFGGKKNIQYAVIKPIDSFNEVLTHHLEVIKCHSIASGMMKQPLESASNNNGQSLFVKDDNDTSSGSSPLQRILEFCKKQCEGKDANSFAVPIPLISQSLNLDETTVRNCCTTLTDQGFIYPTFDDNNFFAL
T2 sequence (P26755 whole entry, chain 3 of 3): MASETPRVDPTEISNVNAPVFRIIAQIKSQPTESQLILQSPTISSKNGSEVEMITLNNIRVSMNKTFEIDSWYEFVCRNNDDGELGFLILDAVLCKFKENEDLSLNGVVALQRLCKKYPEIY

Another assay has as its target T3, 4KR RPA complex (yeast, UniProt P22336 1-621; P26754 1-273; P26755 1-122, K259R | K427R | K463R | K494R).
T3 construct: Rfa1, largest subunit of yeast RPA, four lysines mutated to arginine; Rfa2, subunit of yeast RPA; Rfa3, subunit of yeast RPA; also called 4KR mutant RPA; source: purified from yeast cells; copies: + +

T3 sequence (P22336 whole entry K259R/K427R/K463R/K494R, chain 1 of 3): as the sequence (P22336 whole entry K259Q/K427Q/K463Q/K494Q, chain 1 of 3) above, with Q259R, Q427R, Q463R, Q494R counted along it
T3 sequence (P26754 whole entry, chain 2 of 3): as the sequence (P26754 whole entry, chain 2 of 3) above
T3 sequence (P26755 whole entry, chain 3 of 3): as the sequence (P26755 whole entry, chain 3 of 3) above
T1 sequence (P22336 whole entry, chain 1 of 3): as the sequence (P22336 whole entry K259Q/K427Q/K463Q/K494Q, chain 1 of 3) above, with Q259K, Q427K, Q463K, Q494K counted along it
T1 sequence (P26754 whole entry, chain 2 of 3): as the sequence (P26754 whole entry, chain 2 of 3) above
T1 sequence (P26755 whole entry, chain 3 of 3): as the sequence (P26755 whole entry, chain 3 of 3) above

B1: 6xHis-Rtt105 (natural protein, yeast, UniProt P40063 1-208, looked up)
chain: MYSNHNLNSDDCCFDWNEEKAAELQRTGVSFDRSLTPQSLRTSTRRLSEENKQQSGTMHIDTSPSVVSDIISSRRDRSQDFFGPHSSSPIAPSERQRADQRSRLESMRLTRRRDKMTKVRGGLEKMEEMIMQGEHLREMQRLKQEAQKNALPSDMAEYMEWQNNEDLEDDELLAFIEKQETYKNELEHFLNNANKNVYENNSYPNSHT
modifications: labelled with a RED-tris-NTA protein labelling kit
notes: Rtt105, yeast RPA chaperone protein
In the case of B1, the Kd in the assay with WT RPA complex is around 1.06 nM; in the assay with 4KQ RPA complex, around 0.51 nM; with 4KR RPA complex, around 1.17 nM.
